Results as given in patent publication US20170281723A1 (OHIO STATE INNOVATION FOUNDATION, published 2017).
Values belong to the molecule of their own block, whether it stands above or below them. Starred links: 1 amine or outer side, 2 acyl side, 3 side chain; linkers in the order of their positions; H or OH if unused. Non-standard residues stand in square brackets, D forms with d. *: point of attachment. Cys(ΨMe,MePro) = 2,2-dimethyl-L-thiazolidine-4-carboxylic acid, cis-proline analog, CC1(C)SC[C@@H](C(=O)[*:2])N1[*:1]; F∗ = N-terminal 5(6)-SFX fluorescein label; Tle = CC(C)(C)[C@H](N)C(=O)O; NHPr = CCCN*

Assays:
[1] = molecular target: Calcineurin (CN), purified as glutathione S-transferase fusion protein from Escherichia coli BL21 cells (UniProt Q08209); test: FA competition, competitor FITC-ZIZIT (100 nM), CN 150 nM
[2] = molecular target: Calcineurin (CN), purified as glutathione S-transferase fusion protein from Escherichia coli BL21 cells (UniProt Q08209); test: fluorescence anisotropy, ratio of KD values against VIVIT
[3] = molecular target: Calcineurin (CN), purified as glutathione S-transferase fusion protein from Escherichia coli BL21 cells (UniProt Q08209); test: fluorescence anisotropy, N-terminal 5(6)-SFX labeled peptide (100 nM) titrated with CN
[4] = molecular target: protein-tyrosine phosphatase SHP1 (UniProt P29350); test: fluorescence anisotropy, FITC-labeled ZIZIT-cisPro 100 nM
[5] = molecular target: Calcineurin (CN), purified as glutathione S-transferase fusion protein from Escherichia coli BL21 cells (UniProt Q08209); test: fluorescence anisotropy, ratio of KD values against ZIZIT
[6] = molecular target: Calcineurin (CN), purified as glutathione S-transferase fusion protein from Escherichia coli BL21 cells (UniProt Q08209); test: in vitro binding to CN, against ZIZIT
Grb2 SH2 domain = molecular target: T1, Grb2 SH2 domain (UniProt P62993 60-152, limits assumed); test: fluorescence anisotropy, FITC-labeled ZIZIT-cisPro 100 nM
T1 construct: domain: SH2 domain; also called SH2 domain of Grb2

[7] = molecular target: bovine serum albumin (BSA) (bovine, UniProt P02769 25-607); test: as above
Chain of bovine serum albumin (BSA) (P02769 25-607 limits assumed): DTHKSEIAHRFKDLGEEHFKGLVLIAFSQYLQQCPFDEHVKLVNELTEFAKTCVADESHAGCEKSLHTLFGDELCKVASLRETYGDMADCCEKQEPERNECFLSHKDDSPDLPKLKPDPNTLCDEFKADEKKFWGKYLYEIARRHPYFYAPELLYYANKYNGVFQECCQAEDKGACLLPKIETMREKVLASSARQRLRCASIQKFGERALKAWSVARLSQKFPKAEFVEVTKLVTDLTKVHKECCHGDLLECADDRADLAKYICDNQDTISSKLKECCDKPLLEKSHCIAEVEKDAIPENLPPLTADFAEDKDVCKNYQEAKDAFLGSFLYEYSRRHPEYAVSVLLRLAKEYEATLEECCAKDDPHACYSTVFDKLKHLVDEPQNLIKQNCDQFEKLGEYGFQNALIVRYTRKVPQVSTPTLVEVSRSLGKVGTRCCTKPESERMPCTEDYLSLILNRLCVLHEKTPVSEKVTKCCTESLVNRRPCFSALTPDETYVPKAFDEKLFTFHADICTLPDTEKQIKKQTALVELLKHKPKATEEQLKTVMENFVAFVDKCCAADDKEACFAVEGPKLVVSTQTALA

T1 sequence (P62993 60-152 limits assumed): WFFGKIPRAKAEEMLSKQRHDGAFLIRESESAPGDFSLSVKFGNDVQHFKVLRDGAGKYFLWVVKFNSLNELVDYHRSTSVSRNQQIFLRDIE

Molecule: Fluorescein-labeled ZIZIT peptide (GPHPZIZITGPHEE, Z = tert-leucine)
fold higher affinity than VIVIT [2]: 10 fold | Kd [3]: 43 nM

Molecule: {F∗}-GPHP[Tle]I[Tle]ITG[Cys(ΨMe,MePro)]HEEG-NHPr (also called FITC-labeled ZIZIT-cisPro) [F*-GPHPZIZITG-Cys(Ψ^Me,MePro)-HEEG-Propyl (F*-ZIZIT-cis), fluorescein-labeled ZIZIT-cisPro]
Kd [4]: > 15000 nM | fold improvement of binding affinity over VIVIT [2]: 200 fold | fold increase of binding affinity over ZIZIT [5]: 20 fold | fold more active than ZIZIT for binding [6]: 15 fold | Kd [3]: 2.6 nM | binding result (Grb2 SH2 domain): no binding (tested: 15 µM) | binding result [7]: no binding (tested: 15 µM)

Second part, the molecule after the results:

IC50 [1]: 110 nM
Molecule: unlabeled ZIZIT-cisPro peptide (GPHPZIZITG-Cys(Ψ^Me,MePro)-HEE)

IC50 [1]: 280 nM
Molecule: unlabeled ZIZIT peptide (GPHPZIZITGPHEE, Z = tert-leucine)

Kd [3]: > 20000 nM
Molecule: {F∗}-GPHAVAVAAGPHEE-NH2 [F*-…-NH2 (F*-VAVAA), fluorescein-labeled negative control peptide]
